# Measured values as given in paper PMC12152837, “Semaglutide Aggregates into Oligomeric Micelles and Short Fibrils in Aqueous Solution” (Biomacromolecules, 2025).
# Several values for one entry are separate records, joined by “and”; a condition that tells them apart may be missing. Equal values may be shown once.
# Columns and labels:
# Caco-2 cells = assay: Transepithelial electrical resistance (TEER) transwell permeability assay; format: cell-based; details: Caco-2 monolayer on transwell, DMEM without serum, 37 °C, pH 7.4, duplicate wells, relative to DMEM control
# Protocol: As a model of the gut epithelium, 1.5 × 10^5 Caco-2 (ATCC, EUA) immortalized colorectal adenocarcinoma cells were seeded into 12 mm Millicell hanging cell culture transwells, with a PET lower membrane permeated by pores 0.4 μm in diameter. The transwells were then inserted into a 12-well plate to create a bicameral chamber system separated by the transwell PET membrane. The cells were cultivated until reaching confluence in DMEM supplemented with 10% FBS for at least 3 weeks before starting the TEER assay in order to form semipermeable membranes composed of Caco-2 cells separating the two chambers. For the TEER assay, a multimeter (TLC Electrical, UK). The microelectrodes were immobilized in a chopstick pattern and coated in carbon conductive ink to prevent corrosion, similar to previous reports using low-cost Volt-ohmeters for TEER. −
# The resistance for the Caco-2 membrane tissue (R tissue) is measured in Ohms (Ω) and defined as Rtissue=RTotal−RBlank
# This represents the total resistance of the system containing the semipermeable membranes minus the initial resistance from the cell containing only media or PBS. […]
# The area calculated for the transwells used in this assay is M Area (cm^2) = 1.12 cm^2. […] The TEER was calculated and is reported as % values relative to controls incubated without semaglutide.
# [1] = ESI-MS integrity and appearance of solution after aging; format: physicochemical
# Protocol: Semaglutide was purchased from Bioserv (Calibre Scientific, Rotherham, UK). The purity by HPLC was >95%, and it was supplied in nonsalt (base) form. The molar mass is M = 4115.7 g mol^–1 (4113.6 g mol^–1 expected). Purity (by HPLC) is >98%.
# (§1) Semaglutide powder was weighed, and the samples were prepared in glass vials using ultrapure water. To monitor the aggregation and stability, some samples were left to age up to 40 days in the fridge at 4 °C, protected from the light. The pH was observed just after preparation and after 40 days of incubation at 4 °C using pH strips due to the small volume of sample available. No evidence of microemulsion formation was observed. ^20 pH values were recorded as follows: 1 wt % fresh pH 5.5, 1 wt % aged: pH 7, 0.1 wt % fresh: pH 6.5, 0.1 wt % aged: pH 7. It is notable that the pH crosses the pK a of the N-terminal histidine (pK a = 6 is the accepted value for isolated histidine) for the more concentrated solution upon aging.
# [2] = Small-angle X-ray scattering (SAXS) of aggregates in water; format: physicochemical; details: for effective charge modulus per micelle z eff: Hayter–Penfold structure factor fit; for micelle inner core radius Ri / micelle outer radius Ro ± Gaussian polydispersity: core-shell sphere form factor
# Protocol: as §1
# SAXS experiments were performed on beamline B21 at Diamond Light Source (Harwell, UK) and SWING at synchrotron SOLEIL (Gif-sur-Yvette, France) and on the labSAXS instrument at Diamond Light Source.
# On B21, the sample solutions were loaded into the 96-well plate of an EMBL BioSAXS robot and then injected via an automated sample exchanger into a quartz capillary (1.8 mm internal diameter) in the X-ray beam. The quartz capillary was enclosed in a vacuum chamber to avoid parasitic scattering. After the sample was injected into the capillary and reached the X-ray beam, the flow was stopped during the SAXS data acquisition. Beamline B21 operates with fixed camera length (3.9 m) and fixed energy (12.4 keV). The images were captured by using a PILATUS 2 M detector. Data processing was performed using the dedicated beamline software ScÅtter. […]
# SAXS experiments (extending to higher q) were also performed using a lab-based Xeuss 3.0 (Xenocs, France) instrument at Diamond Light Source, equipped with a liquid gallium MetalJet X-ray source (Excillum, Sweden) with an energy of 9.24 keV, corresponding to a wavelength of 1.34 Å. SAXS patterns were measured for 28800 s with an incident X-ray photon flux of roughly 4.06 × 10^6 ph/s on an EIGER2 R 1M detector (Dectris, Switzerland), and the sample-to-detector distance was set to 315 mm, giving a q range of 0.17–1.1 nm^–1. The beam size is roughly 0.4 × […] on the sample. The sample environment was a custom-designed low-noise flow-through cell having a thickness of roughly 0.7 mm and an area of 1.1 mm × 1.1 mm. The window material is silicon nitride. Silver behenate (layer spacing, d = 58.38 Å) was used to calibrate the SAXS data. SAXS images were analyzed using the IDL-based AXcess software package or software DAWN.
# The association number of the micelle can be obtained in a model-independent fashion from the forward scattering intensity of the SAXS data in dilute solution. , The measured synchrotron SAXS data presented here is in absolute units (cm^–1) and the forward scattering (at q = 0) can be written as 1 I(0)=cmicMmic[r0vp(ρl−ρ0)]^2/NA Here, c mic is the concentration of micelles, M mic is the micelle molar mass, r 0 is the classical electron radius [0.28179 × 10^–12 cm e ^–1], v p is the partial specific volume, and ρl and ρ0 represent the lipopeptide and solvent (water) electron density. […] Rearranging eq gives 2 Mmic=I(0)NA/cmic[r0vp(ρl−ρ0)]^2 […]
# Table S1. Fit parameters to the SAXS data in Fig.2b using a core-shell sphere form form factor with the Hayter-Penfold RMSA structure factor.1 The monodisperse approximation to factor the form and structure factors of isotropic solutions of centrosymmetric particles is assumed. Fitting performed using SASfit.2-3 […]
# (Diamond synch.) (Diamond synch.) (Diamond synch.) (Lab SAXS)b […]
# Key: Core-Shell Sphere Form factor: Ro: outer radius (σc Gaussian polydispersity in R0), Ri: inner radius, µ: ratio of scattering contrast of inner core/outer core, η: scattering contrast of core. Structure factor: RHS, hard sphere radius, φ: effective volume fraction zeff: effective charge modulus, I: ionic strength (temperature fixed at T = 293 K).
# Gaussian coils: Rg: radius of gyration, Ic: intensity. Background: BG (constant). […]
# [3] = Nile red fluorescence assay of critical micelle concentration; format: physicochemical; details: 45-day aged sample in water, stored at 4 °C; 5 μM Nile red, λexc 550 nm, peak fluorescence intensity at 635 nm versus concentration
# Protocol: Fluoroscence of tryptophan in semaglutide was excited at λexc= 295 nm, and fluorescence emission spectra were measured using a Cary Eclipse spectrofluorometer (Agilent, Didcot, UK) with excitation and emission slits of 5 nm. The spectra were recorded from 300 to 600 nm. The temperature was maintained at 20 °C during the measurements. This protocol was performed using fresh Semaglutide samples and then repeated using the same samples stored at 4 °C for 40 days, protected from the light. To determine the critical aggregation concentration (CAC) of semaglutide using Nile red, Semaglutide samples (45-day aged) were prepared in 5 μM of Nile red. The wavelength for excitation was set at λexc = 550 nm with 5 nm windows, and spectra were collected from 570 to 750 nm.
# SI Fig.S13. Nile red fluorescence assay of critical micelle concentration (CMC) for a
# 45-day aged sample. (a) Plot of peak fluorescence intensity (l = 635 nm) versus
# concentration, (b) Original fluorescence spectra.
# Fluorescence Intensity (l635 nm)
# Fluorescence intensity / arb. units […]
# [4] = Cryogenic-TEM imaging of aggregates; format: physicochemical
# Protocol: as §1, with “To monitor the aggregation and stability, some samples were left to age up to 40 days in the fridge at 4 °C, protected from the light.” left out
# Imaging was carried out using a field emission cryo-electron microscope (JEOL JEM-3200FSC), operating at 200 kV. Images were taken in bright field mode and using zero loss energy filtering (omega type) with a slit width of 20 eV. Micrographs were recorded using a Gatan Ultrascan 4000 CCD camera. The specimen temperature was maintained at −187 °C during the imaging. Vitrified specimens were prepared by using an automated FEI Vitrobot device using Quantifoil 3.5/1 holey carbon copper grids with a hole size of 3.5 μm. Just prior to use, grids were plasma cleaned using a Gatan Solarus 9500 plasma cleaner and then transferred into the environmental chamber of a FEI Vitrobot at room temperature and 100% humidity. Thereafter, 3 μL of sample solution was applied on the grid, and it was blotted twice for 5 s and then vitrified in a 1/1 mixture of liquid ethane and propane at a temperature of −180 °C. The grids with vitrified sample solution were maintained at liquid nitrogen temperature and then cryo-transferred to the microscope.
# [5] = pH of aqueous solutions (pH strips); format: physicochemical
# Protocol: as §1
# [6] = 0.5 wt % in water, aged 40 days, Diamond synchrotron
# [7] = 0.5 wt %, aged 40 days, Diamond synchrotron, fixed for the fits
# [8] = 1 wt % in water, aged 40 days, Diamond synchrotron
# [9] = 1 wt %, aged 40 days, Diamond synchrotron, fixed for the fits
substance,measurement,setting,value
Semaglutide,"TEER, % of the initial TEER","Caco-2 cells; aged (40 days, 4 °C) semaglutide 0.02 wt %, after 2–4 h",around 90%
same,"TEER, % of the initial TEER","Caco-2 cells; fresh semaglutide 0.02 wt %, after 30 min",around 80%
same,chemical stability in solution (degradation),"[1]; aqueous solution, 40 days of aging at 4 °C protected from light, ESI-MS",No evidence for degradation in solution was observed
same,appearance of solutions,[1]; solutions in pure water prepared in glass vials,transparent
same,radius of gyration Rg (Gaussian coils),"[2]; 0.1 wt % in water, aged 40 days, Diamond synchrotron",1.57 nm
same,micelle molar mass M mic,"[2]; 0.1 wt % in water, aged 40 days, from SAXS forward scattering I(0) = 0.0025 cm^–1",9111 g mol^–1
same,association number p,"[2]; 0.1 wt % in water, aged 40 days, from SAXS forward scattering I(0), p = Mmic/Mmol",≈ 2.2
same,hard sphere radii R HS from the structure factor,[2]; 0.5 and 1 wt % aged solutions,2.23–2.54 nm
same,hard sphere radius RHS,[2]; [6],2.23 nm
same,effective charge modulus per micelle z eff,[2]; [6],9.81
same,micelle inner core radius Ri,[2]; [7],1.50 nm
same,micelle outer radius Ro ± Gaussian polydispersity,[2]; [7],2.31±0.59 nm
same,hard sphere radius RHS,[2]; [8],2.54 nm
same,effective charge modulus per micelle z eff,[2]; [8],10.8
same,association number p,"[2]; 1 wt % in water, aged, rough estimate from the ratio of low-q intensity for 1 and 0.1 wt %",12–15
same,hard sphere radius RHS,"[2]; 1 wt %, Lab SAXS",2.54 nm
same,radius of gyration Rg (additional Gaussian coil term),"[2]; 1 wt %, Lab SAXS, term for high q scattering",0.8 nm
same,effective charge modulus per micelle z eff,"[2]; 1 wt %, Lab SAXS",9.00
same,micelle inner core radius Ri,"[2]; 1 wt %, Lab SAXS",1.50 nm
same,micelle outer radius Ro ± Gaussian polydispersity,"[2]; 1 wt %, Lab SAXS",2.31±0.59 nm
same,micelle inner core radius Ri,[2]; [9],1.50 nm
same,micelle outer radius Ro ± Gaussian polydispersity,[2]; [9],2.31±0.59 nm
same,micelle radius,"[2]; as determined from cryo-TEM and SAXS, aged solutions at sufficiently high concentration",2 nm
same,critical micelle concentration (CMC),[3],0.06 wt % and 0.06 ± 0.005 wt %
same,diameter of micelle-like structures,"[4]; 1 wt % in water, aged 40 days at 4 °C, cryo-TEM",< 5 nm
same,"morphology by cryo-TEM, further aging","[4]; 1 wt % sample aged 79 days, compared to the 40-day aged sample",no further change in morphology
same,morphology by cryo-TEM,[4]; freshly dissolved 1 wt % solution in water,irregular clustered morphology
same,pH of solution,"[5]; 0.1 wt % in ultrapure water, aged 40 days at 4 °C",7
same,pH of solution,"[5]; 0.1 wt % in ultrapure water, fresh",6.5
same,pH of solution,"[5]; 1 wt % in ultrapure water, aged 40 days at 4 °C",7
same,pH of solution,"[5]; 1 wt % in ultrapure water, fresh",5.5
